Reference: US20260167959A1, “APTAZYME-BASED REGULATABLE GENE EXPRESSION SYSTEMS” (REJUVENATE BIO INC, priority 2022, published 2026)

Test system: Renilla luciferase RNA
Experiment: Barcoded aptazyme variant library screen: un-cleaved Renilla luciferase RNA by barcode read counts, HEK293-T cells
Assay type: cell-based
Conditions: un-cleaved Renilla luciferase RNA, HEK293-T cells cultured with 1 mM theophylline (ON) over without theophylline (OFF); barcode read counts, triplicate
In short: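 Aptazyme variants (seven theophylline aptamers inserted after each T3H48 ribozyme nucleotide, 9-nt barcoded) cloned into the 3′ UTR of Renilla luciferase in psiCHECK-2; cells cultured ± theophylline, in triplicate. RNA and DNA barcodes amplified and sequenced; normalized read counts gave un-cleaved RNA fraction and ON/OFF fold-change.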

| Molecule | Fold change in RNA expression between the ON state and the OFF state [fold] |
| --- | --- |
| RA157 (nucleic acid, expressed or natural sequence) DNA: GCGCGTCCTGGATTCGCGGAAACGCGTAAGAATACCAGCATCGTCTTGATGCCCTTGGAAGTCTCATCCAGCTGACGAGTCCCAAATAGGACGAAACGCGC | 1.3 |
| RA175 (nucleic acid, expressed or natural sequence) DNA: GCGCGTCCTGGATTCGCGGAAACGCGTACATCCAGCTGACGAGTCCCAAATAGGACGAAACGCGCCGAGAATACCAGCATCGTCTTGATGCCCTTGGAAGTCTCG | 1.3 |
| RA161 (nucleic acid, expressed or natural sequence) DNA: GCGCGTCCTGGATTCGCGGAAACGCGTACATCCAGCTGACGAGTCCCAAATAGGACCCGGAATACCAGCATCGTCTTGATGCCCTTGGAAGTCCGGGAAACGCGC | 1.3 |
| RA016 (nucleic acid, expressed or natural sequence) DNA: GCGCGTCCTGGATGAGAATACCAGCATCGTCTTGATGCCCTTGGAAGTCTCTCGCGGAAACGCGTACATCCAGCTGACGAGTCCCAAATAGGACGAAACGCGC | 2.8 |
| RA174 (nucleic acid, expressed or natural sequence) DNA: GCGCGTCCTGGATTCGCGGAAACGCGTACATCCAGCCGGAATACCAGCATCGTCTTGATGCCCTTGGAAGTCCGTGACGAGTCCCAAATAGGACGAAACGCGC | 1.3 |
| RA168 (nucleic acid, expressed or natural sequence) DNA: GCGCGTCCTGGATCGAGAATACCAGCATCGTCTTGATGCCCTTGGAAGTCTCGTCGCGGAAACGCGTACATCCAGCTGACGAGTCCCAAATAGGACGAAACGCGC | 1.3 |
| RA165 (nucleic acid, expressed or natural sequence) DNA: GCGCGTCCTGGATTCGCGGAAACGCGTAGAGAATACCAGCATCGTCTTGATGCCCTTGGAAGTCTCCATCCAGCTGACGAGTCCCAAATAGGACGAAACGCGC | 1.3 |
| RA162 (nucleic acid, expressed or natural sequence) DNA: GCGCGTCCTGGATTCGCGGAAACGCGTACATCCAGCTGACGAGTCCCAAATAGGGGAATACCAGCATCGTCTTGATGCCCTTGGAAGTCCACGAAACGCGC | 1.3 |
| RA173 (nucleic acid, expressed or natural sequence) DNA: GCGCGTCCTGGATTCGCGGAAACGCGTACATCCAGCTGACGAGTCCCAAATAGCGGAATACCAGCATCGTCTTGATGCCCTTGGAAGTCCGGACGAAACGCGC | 1.3 |
| RA001 (nucleic acid, expressed or natural sequence) DNA: GCGCGTCCTGGATTCGCGGAAACGCGTACATCCAGCTGACGAGTCCCAAATAGGACGAAACGCGCAGTGATACCAGCATCGTCTTGATGCCCTTGGCAGCACT | >6 |
| RA153 (nucleic acid, expressed or natural sequence) DNA: CGAGAATACCAGCATCGTCTTGATGCCCTTGGAAGTCTCGGCGCGTCCTGGATTCGCGGAAACGCGTACATCCAGCTGACGAGTCCCAAATAGGACGAAACGCGC | 1.3 |
| RA156 (nucleic acid, expressed or natural sequence) DNA: GCCGGAATACCAGCATCGTCTTGATGCCCTTGGAAGTCCGGCGCGTCCTGGATTCGCGGAAACGCGTACATCCAGCTGACGAGTCCCAAATAGGACGAAACGCGC | 1.3 |
| RA163 (nucleic acid, expressed or natural sequence) DNA: GCGCGTCCTGGATTCGCGGAAACGCGTACATCCAGCCGGAATACCAGCATCGTCTTGATGCCCTTGGAAGTCCGGCTGACGAGTCCCAAATAGGACGAAACGCGC | 1.3 |
| RA167 (nucleic acid, expressed or natural sequence) DNA: GCGCGTCCTGGATTCGCGGAAACGCGTACATCCAGGGAATACCAGCATCGTCTTGATGCCCTTGGAAGTCCCTGACGAGTCCCAAATAGGACGAAACGCGC | 1.3 |
| RA158 (nucleic acid, expressed or natural sequence) DNA: GCGCGTCCTGGATTCGCGGAAACGCGTACATCCAGCTGACGAGTCCCAAATAGGACGAGTGATACCAGCATCGTCTTGATGCCCTTGGCAGCACTAAACGCGC | 1.3 |
| RA155 (nucleic acid, expressed or natural sequence) DNA: GCGCGTCCTGGATTCGCGGAAACGCGTACATCCAGCTGACGAGTCCCAAATAGGACGAGAATACCAGCATCGTCTTGATGCCCTTGGAAGTCTCGCGAAACGCGC | 1.3 |
| RA015 (nucleic acid, expressed or natural sequence) DNA: GCGCGTCCTGGATTCGCGGCGGAATACCAGCATCGTCTTGATGCCCTTGGAAGTCCGAAACGCGTACATCCAGCTGACGAGTCCCAAATAGGACGAAACGCGC | 3.0 |
| RA172 (nucleic acid, expressed or natural sequence) DNA: AGAATACCAGCATCGTCTTGATGCCCTTGGAAGTCTGCGCGTCCTGGATTCGCGGAAACGCGTACATCCAGCTGACGAGTCCCAAATAGGACGAAACGCGC | 1.3 |
| RA164 (nucleic acid, expressed or natural sequence) DNA: GCGCGTCCTGGATTCGCGGAAACGCGTACATCCAGCTGACGAGTCCCAAATAGGACGCGAGAATACCAGCATCGTCTTGATGCCCTTGGAAGTCTCGAAACGCGC | 1.3 |
| RA151 (nucleic acid, expressed or natural sequence) DNA: GCGCGTCCTGGATTCGCGGAAACGCGTACCGGAATACCAGCATCGTCTTGATGCCCTTGGAAGTCCGGCATCCAGCTGACGAGTCCCAAATAGGACGAAACGCGC | 1.4 |
| RA170 (nucleic acid, expressed or natural sequence) DNA: GCGCGTCCTGGATTCGCGGAAACGCGTACATCCAGCTGACGAGTCCCAAATAGGACGAAACGCAGAATACCAGCATCGTCTTGATGCCCTTGGAAGTCTGC | 1.3 |
| RA152 (nucleic acid, expressed or natural sequence) DNA: GCGCGTGGAATACCAGCATCGTCTTGATGCCCTTGGAAGTCCCCTGGATTCGCGGAAACGCGTACATCCAGCTGACGAGTCCCAAATAGGACGAAACGCGC | 1.4 |
| RA159 (nucleic acid, expressed or natural sequence) DNA: GCGCGTCCTGGATTCGCGGAATACCAGCATCGTCTTGATGCCCTTGGAAGTCCGCGGAAACGCGTACATCCAGCTGACGAGTCCCAAATAGGACGAAACGCGC | 1.3 |
| RA169 (nucleic acid, expressed or natural sequence) DNA: GCGCGTCCTGGCCGGAATACCAGCATCGTCTTGATGCCCTTGGAAGTCCGGATTCGCGGAAACGCGTACATCCAGCTGACGAGTCCCAAATAGGACGAAACGCGC | 1.3 |
| RA171 (nucleic acid, expressed or natural sequence) DNA: GCGCGTCCTGGATTCGCGGAAACGCGTACACGAGAATACCAGCATCGTCTTGATGCCCTTGGAAGTCTCGTCCAGCTGACGAGTCCCAAATAGGACGAAACGCGC | 1.3 |
| RA160 (nucleic acid, expressed or natural sequence) DNA: GCGCGTCCTGGATTCGCGGAAACGCGTACATCCAGCTGACGAGGGAATACCAGCATCGTCTTGATGCCCTTGGAAGTCCTCCCAAATAGGACGAAACGCGC | 1.3 |
| RA154 (nucleic acid, expressed or natural sequence) DNA: GCGCGTCCTGGATTCGCGGAAACGCGAGAATACCAGCATCGTCTTGATGCCCTTGGAAGTCTCGTACATCCAGCTGACGAGTCCCAAATAGGACGAAACGCGC | 1.3 |
| RA166 (nucleic acid, expressed or natural sequence) DNA: GCGCGTCCTGGATTCGCGGAAACGCGTACATCCAGCTGACGAGTCCCACGAGAATACCAGCATCGTCTTGATGCCCTTGGAAGTCTCGAATAGGACGAAACGCGC | 1.3 |
